Legend:
[1] = substrate: CCCCCCCCCC(=O)SCCNC(=O)CCNC(=O)[C@H](O)C(C)(C)COP(=O)(O)OP(=O)(O)OC[C@H]1O[C@@H](n2cnc3c(N)ncnc32)[C@H](O)[C@@H]1OP(=O)(O)O; assay: purified protein; format: biochemical, Helicobacter pylori; details: pH 7.2, 50 mM sodium phosphate, 50 mM NaCl, 25-37 °C, 1.25 uM FabX, 5 uM E. coli FabI, 125 uM NADH, dehydrogenation of substrate analogue of decanoyl-ACP, 30-250 uM
[2] = target: Helicobacter pylori FabX R164A (H. pylori)
[3] = target: Helicobacter pylori FabX (H. pylori); assay: SEC-MALS; 10 mg/ml FabX, holo-ACP or FabX-holo-ACP complex on a WTC-030S5 column; 20 mM HEPES pH 8.0, 50 mM NaCl, 10 mM TCEP

B1: FabX (Helicobacter pylori) (protein)
chain: MVSTLKPLKIGKHTIKFPIFQGGMGVGISWDELAGNVAKEGALGVISAVGTGYYKNMRFVERIVAKKPFEALNFYSKKALNEIFANARKICGNNPLGANILYAINDYGRVLRDSCEAGANIIITGAGLPTNMPEFAKDFSDVALIPIISSAKALKILCKRWSDRYKRIPDAFIVEGPLSGGHQGFKYEDCFKEEFRLENLVPKVVEASKEWGNIPIIAAGGIWDRKDIDTMLSLGASGVQMATRFLGTKECDAKVYADLLPTLKKEDILLIKSPVGYPARAINTGVIKRIEEGNAPKIACVSNCVAPCNRGEEAKKVGYCIADGLGRSYLGNREEGLYFTGANGYRVDKIISVHELIKELTEG
notes: full length, 363 residues; expressed in E. coli BL21(DE3) Rosetta; monomer in the asymmetric unit; holds FMN and a [4Fe-4S] cluster
- Km [1]: 125.40 µM
- kcat [1]: 0.0186 s⁻¹

B2: Helicobacter pylori decanoyl-acyl carrier protein (natural protein)
chain: MALFEDIQAVIAEQLNVDAVQVTPEAEFVKDLGADSLDVVELIMALEEKFGVEIPDEQAEKIINVGDVVKYIEDNKLA
- in vitro dehydrogenation activity with decanoyl-ACP (FabX-FabI coupled assay), fold reduction against wild type FabX [2]: 80 fold

B3: Helicobacter pylori holo-acyl carrier protein (natural protein)
chain: B2 chain
modifications: phosphopantetheine group (PPant) on Ser36
- stoichiometry N [3]: 1

Source: publication PMC8626469, “Helicobacter pylori FabX contains a [4Fe-4S] cluster essential for unsaturated fatty acid synthesis” (Nature Communications, 2021)
